Laboratory results from patent US20030170203A1 (Human Genome Sciences, published 2003).

What was measured:
Experiment in all cases: flow cytometry on transiently transfected cells
[1] = target: T1, DcR1 on transiently transfected cells (UniProt O14798 26-236, limits assumed)
T1 construct: whole, on cells
T1 sequence (looked up): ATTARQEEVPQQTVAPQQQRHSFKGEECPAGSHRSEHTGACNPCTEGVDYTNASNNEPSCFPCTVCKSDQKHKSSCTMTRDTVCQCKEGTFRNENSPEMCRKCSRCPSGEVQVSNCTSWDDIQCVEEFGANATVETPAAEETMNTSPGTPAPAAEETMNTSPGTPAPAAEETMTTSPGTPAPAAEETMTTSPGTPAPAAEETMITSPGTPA
Protocol: (§1) One million cells, in 0.1 ml of FACS buffer (PBS, 0.1% BSA, 0.1% NaN₃), were incubated with 0.1-1 microgram of protein or antibody at RT for 15 min. The cells were washed with 3 ml of FACS buffer, reacted with biotinylated primary antibody, and stained with PE-conjugated secondary antibody at RT for 15 min. Cells were then washed again, resuspended in 0.5 microgram/ml of propidium iodide, and live cells were gated and analyzed on a FACScan using the CellQuest software (BD Biosciences).

[2] = target: T2, DR4 on transiently transfected cells (UniProt O00220 24-468, limits assumed)
T2 construct: whole, on cells
T2 sequence (looked up): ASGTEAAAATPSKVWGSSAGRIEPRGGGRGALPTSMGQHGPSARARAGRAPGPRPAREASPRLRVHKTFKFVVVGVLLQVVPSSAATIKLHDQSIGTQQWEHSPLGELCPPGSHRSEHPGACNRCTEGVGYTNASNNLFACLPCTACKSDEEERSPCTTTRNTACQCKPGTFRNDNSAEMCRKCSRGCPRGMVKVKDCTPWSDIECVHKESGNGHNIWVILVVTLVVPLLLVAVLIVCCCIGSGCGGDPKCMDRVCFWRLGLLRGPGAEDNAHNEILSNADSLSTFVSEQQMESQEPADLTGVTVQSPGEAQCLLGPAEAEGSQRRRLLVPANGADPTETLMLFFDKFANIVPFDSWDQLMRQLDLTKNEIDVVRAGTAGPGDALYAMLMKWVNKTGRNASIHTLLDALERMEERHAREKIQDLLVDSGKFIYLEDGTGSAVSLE
Protocol: as §1

[3] = target: T3, DR6 on transiently transfected cells (UniProt O75509 42-655, limits assumed)
T3 construct: whole, on cells
T3 sequence (looked up): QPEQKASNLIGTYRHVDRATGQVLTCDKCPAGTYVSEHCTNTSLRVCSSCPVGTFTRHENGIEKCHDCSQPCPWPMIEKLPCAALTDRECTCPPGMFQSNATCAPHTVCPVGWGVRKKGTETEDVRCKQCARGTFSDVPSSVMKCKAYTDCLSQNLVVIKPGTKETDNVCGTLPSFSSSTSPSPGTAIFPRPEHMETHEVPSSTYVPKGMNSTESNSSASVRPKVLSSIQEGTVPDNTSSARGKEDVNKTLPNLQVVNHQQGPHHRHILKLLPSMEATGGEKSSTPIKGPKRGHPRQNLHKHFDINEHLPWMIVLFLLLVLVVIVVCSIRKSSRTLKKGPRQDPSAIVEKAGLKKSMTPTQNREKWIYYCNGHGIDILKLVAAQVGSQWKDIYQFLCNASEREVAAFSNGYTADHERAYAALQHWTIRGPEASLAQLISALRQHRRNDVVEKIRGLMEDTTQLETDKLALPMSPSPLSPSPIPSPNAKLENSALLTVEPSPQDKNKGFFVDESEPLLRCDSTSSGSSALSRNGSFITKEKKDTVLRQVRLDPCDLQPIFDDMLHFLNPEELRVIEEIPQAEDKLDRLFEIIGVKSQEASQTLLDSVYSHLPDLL
Protocol: as §1

[4] = target: T4, CD27 on transiently transfected cells (UniProt P26842 20-260, limits assumed)
T4 construct: whole, on cells
T4 sequence (looked up): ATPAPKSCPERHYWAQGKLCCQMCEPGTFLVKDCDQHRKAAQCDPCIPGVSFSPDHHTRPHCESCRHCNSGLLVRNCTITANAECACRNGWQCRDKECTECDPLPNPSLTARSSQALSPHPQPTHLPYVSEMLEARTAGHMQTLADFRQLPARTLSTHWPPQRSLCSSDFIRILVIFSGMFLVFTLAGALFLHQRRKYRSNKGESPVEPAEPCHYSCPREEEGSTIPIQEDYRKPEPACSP
Protocol: as §1

[5] = target: T5, DcR2 on transiently transfected cells (UniProt Q9UBN6 56-386, limits assumed)
T5 construct: whole, on cells
T5 sequence (looked up): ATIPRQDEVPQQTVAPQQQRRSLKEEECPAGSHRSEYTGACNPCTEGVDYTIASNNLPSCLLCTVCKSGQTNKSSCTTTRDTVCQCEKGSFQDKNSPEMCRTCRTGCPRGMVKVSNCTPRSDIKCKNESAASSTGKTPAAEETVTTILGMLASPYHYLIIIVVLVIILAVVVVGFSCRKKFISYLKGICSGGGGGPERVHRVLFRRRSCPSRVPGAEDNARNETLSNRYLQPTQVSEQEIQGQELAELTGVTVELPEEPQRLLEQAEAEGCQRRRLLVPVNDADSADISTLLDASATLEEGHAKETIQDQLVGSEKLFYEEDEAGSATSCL
Protocol: as §1

[6] = target: T6, CD30 on transiently transfected cells (UniProt P28908 19-595, limits assumed)
T6 construct: whole, on cells
T6 sequence (looked up): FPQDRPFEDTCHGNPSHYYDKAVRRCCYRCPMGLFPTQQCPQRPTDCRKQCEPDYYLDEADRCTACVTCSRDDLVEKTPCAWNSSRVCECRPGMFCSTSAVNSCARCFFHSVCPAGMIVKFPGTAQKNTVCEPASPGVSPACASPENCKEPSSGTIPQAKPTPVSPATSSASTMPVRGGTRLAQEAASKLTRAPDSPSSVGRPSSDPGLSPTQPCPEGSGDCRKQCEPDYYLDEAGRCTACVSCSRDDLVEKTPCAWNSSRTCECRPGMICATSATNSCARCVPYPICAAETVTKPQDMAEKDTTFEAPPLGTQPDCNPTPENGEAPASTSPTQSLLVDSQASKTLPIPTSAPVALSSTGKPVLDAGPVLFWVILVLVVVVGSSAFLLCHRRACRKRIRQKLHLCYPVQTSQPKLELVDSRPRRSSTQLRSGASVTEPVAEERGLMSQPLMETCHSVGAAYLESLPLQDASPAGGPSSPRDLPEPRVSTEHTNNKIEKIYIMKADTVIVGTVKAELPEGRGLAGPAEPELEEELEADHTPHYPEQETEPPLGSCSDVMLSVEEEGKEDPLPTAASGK
Protocol: as §1

[7] = target: T7, DR5 on transiently transfected cells (UniProt O14763 56-440, limits assumed)
T7 construct: whole, on cells
Protocol: as §1

Measured: binding result

B1: FLAG-tagged soluble form of TNF-gamma-beta (aa 72-251) (ligand, human, UniProt O95150 72-251, looked up)
chain: LKGQEFAPSHQQVYAPLRADGDKPRAHLTVVRQTPTQHFKNQFPALHWEHELGLAFTKNRMNYTNKFLLIPESGDYFIYSQVTFRGMTSECSEIRQAGRPNKPDSITVVITKVTDSYPEPTQLLMGTKSVCEVGSNWFQPIYLGAMFSLQEGDKLMVNVSDISLVDYTKEDKTFFGAFLL
notes: also called FLAG-TL1β; FLAG-TNF-gamma-beta; not shown: FLAG tag of vector pFLAGCMV1
no binding: all assays above
